Measurements reported in PMC10579966, “The NADH recycling enzymes TsaC and TsaD regenerate reducing equivalents for Rieske oxygenase chemistry” (The Journal of Biological Chemistry, 2023).

Key:
[1] = biological target: T1, TsaC (Comamonas testosteroni, UniProt P94681); assay: differential scanning fluorimetry; type: binding; conditions: 10 μM enzyme; NADH alone
T1 construct: gene tsaC1; N-terminal His6 tag with TEV site (residues -20 to -1, kept), codon-optimized, pET-28a(+)-TEV, E. coli C41(DE3); native residues 1-252; homotetramer

[2] = biological target: T2, TsaM (Comamonas testosteroni, UniProt P94679); assay: LC-MS product formation and NADH consumption (A340); type: biochemical; conditions: with reductase VanB, Fe(II), 30 °C
T2 construct: gene tsaM1; pET-28a(+)-TEV-tsaM, E. coli C41(DE3), purified as TsaC; trimer
T2 sequence (P94679 1-347): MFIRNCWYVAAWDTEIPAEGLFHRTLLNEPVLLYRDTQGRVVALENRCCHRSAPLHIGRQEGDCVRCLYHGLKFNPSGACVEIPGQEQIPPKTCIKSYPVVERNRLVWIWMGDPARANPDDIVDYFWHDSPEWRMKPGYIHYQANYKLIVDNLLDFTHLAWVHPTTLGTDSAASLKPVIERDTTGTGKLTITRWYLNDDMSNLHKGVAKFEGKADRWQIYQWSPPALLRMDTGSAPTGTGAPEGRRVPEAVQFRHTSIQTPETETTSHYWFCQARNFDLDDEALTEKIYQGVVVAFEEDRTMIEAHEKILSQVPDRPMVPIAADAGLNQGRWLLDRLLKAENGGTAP

[3] = biological target: T3, TsaC (Comamonas testosteroni, UniProt P94681, T143Q/G149N); assay: GC-MS turnover; type: biochemical; conditions: 5 mM NAD+, 10 μM enzyme, 30 °C, 2 h
T3 construct: gene tsaC1; N-terminal His6 tag with TEV site (residues -20 to -1, kept), codon-optimized, pET-28a(+)-TEV, E. coli C41(DE3); native residues 1-252; homotetramer

[4] = biological target: T4, TsaC (Comamonas testosteroni, UniProt P94681, G149N); assay: GC-MS turnover; type: biochemical; conditions: 5 mM NAD+, 10 μM enzyme, 30 °C, 2 h
T4 construct: gene tsaC1; N-terminal His6 tag with TEV site (residues -20 to -1, kept), codon-optimized, pET-28a(+)-TEV, E. coli C41(DE3); native residues 1-252; homotetramer

[5] = substrate: O=Cc1ccc(S(=O)(=O)O)cc1; assay: LC-MS steady-state kinetics; type: biochemical, Comamonas testosteroni; conditions: 2 mM NAD+, 30 °C
Source text: (§1) LC-MS steady-state kinetics on TsaD

[6] = substrate: O=Cc1ccc(C(=O)O)cc1; assay: LC-MS steady-state kinetics; type: biochemical, Comamonas testosteroni; conditions: 2 mM NAD+, 30 °C
Source text: as §1

[7] = biological target: the molecule itself; assay: SEC; HiPrep 16/60 Sephacryl S200-HR, 50 mM Hepes pH 8.0, 200 mM NaCl, 5% glycerol
[8] = substrate: O=Cc1ccc(S(=O)(=O)O)cc1; assay: LC-MS steady-state kinetics; type: biochemical, Comamonas testosteroni; conditions: 2 mM NAD+, 30 °C, aldehyde hydrate proposed as the oxidized species
Source text: (§2) LC-MS steady-state kinetics on TsaC

[9] = substrate: O=C(O)c1ccc(CO)cc1; assay: LC-MS steady-state kinetics; type: biochemical, Comamonas testosteroni; conditions: 2 mM NAD+, 30 °C
Source text: as §2

[10] = substrate: O=S(=O)(O)c1ccc(CO)cc1; assay: LC-MS steady-state kinetics; type: biochemical, Comamonas testosteroni; conditions: 2 mM NAD+, 30 °C
Source text: as §2

[11] = substrate: O=Cc1ccc(C(=O)O)cc1; assay: LC-MS steady-state kinetics; type: biochemical, Comamonas testosteroni; conditions: 2 mM NAD+, 30 °C, aldehyde hydrate proposed as the oxidized species
Source text: as §2

[12] = biological target: the molecule itself; assay: crystal structure; hanging-drop vapor diffusion, 10 to 20 mg/ml protein with 2 mM NAD+, 0.2 M KCl, 20% PEG 3350, 10% glycerol, 293 K; two chains in the asymmetric unit, tetramer with two symmetry-related molecules; 2.18 A
[13] = biological target: the molecule itself; assay: SEC-MALS; 15 ul of 90 uM protein, AdvanceBio 300A column, 50 mM Hepes pH 8.2, 200 mM NaCl, 5% glycerol, with either NAD+ or NADH, room temperature; about 0.3 uM at the apex of the largest peak
[14] = biological target: the molecule itself; assay: SEC; gel filtration in the purification of TsaM, purified as described for TsaC; lysis buffer 50 mM Tris-HCl pH 7.2, 250 mM NaCl

T3 sequence (P94681 whole entry T143Q/G149N, the tested form may be a part): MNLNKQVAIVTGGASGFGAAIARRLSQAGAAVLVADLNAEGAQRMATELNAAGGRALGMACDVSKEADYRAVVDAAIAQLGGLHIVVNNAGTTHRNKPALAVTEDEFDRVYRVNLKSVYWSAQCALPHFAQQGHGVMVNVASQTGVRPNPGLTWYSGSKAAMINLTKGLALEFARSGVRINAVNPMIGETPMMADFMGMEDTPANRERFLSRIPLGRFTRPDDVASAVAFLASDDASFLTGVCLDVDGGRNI
T4 sequence (P94681 whole entry G149N, the tested form may be a part): as the sequence (P94681 whole entry T143Q/G149N, the tested form may be a part) above, with Q143T counted along it

**Q.** Which ΔTm [1] does the source give for `NC(=O)C1=CN([C@@H]2O[C@H](COP(=O)(O)OP(=O)(O)OC[C@H]3O[C@@H](n4cnc5c(N)ncnc54)[C@H](O)[C@@H]3O)[C@@H](O)[C@H]2O)C=CC1` [NADH] here?
**A.** Its ΔTm is 12.4 °C.

**Q.** `Cc1ccc(S(=O)(=O)O)cc1` [4-methylbenzenesulfonate] was tested. Which “LC-MS product formation and NADH consumption (A340)” value [2] did it give?
**A.** The value was “more NADH is consumed in assays that contain 4-methylbenzenesulfonate rather than 4-methylbenzoate”.

**Q.** `C[C@H](O)[C@@H](C)O` [meso-2,3-butanediol] was tested. Which GC-MS turnover [3] did it give?
**A.** The GC-MS turnover was “T143Q/G149N variants of TsaC show a significantly improved ability to transform meso-2,3-butanediol into 3-hydroxy-2-butanone”.

**Q.** And the GC-MS turnover [4]?
**A.** Its GC-MS turnover is “both the G149N and T143Q/G149N variants of TsaC show a significantly improved ability”.

**Q.** For `Cc1ccc(C(=O)O)cc1` [4-methylbenzoate], which “LC-MS product formation and NADH consumption (A340)” value [2] is on record?
**A.** The value was “TsaM and VanB consume more 4-methylbenzenesulfonate than 4-methylbenzoate”.

B1: TsaD (wild type), aldehyde dehydrogenase of the TsaMBCD pathway (enzyme, Comamonas testosteroni, UniProt P94682 1-476, looked up)
chain: MSTVLYRCPELLIGGEWRPGRHEQRLVVRNPATGEPLDELRLASADDLQLALQTTQQAFEHWRQVPAHERCARLERGVARLRENTERIAHLLTLEQGKTLAEARMECAMAADLIKWYAEEARRVYGRVIPARLPNSRMEVFKFPVGPVAAFSPWNFPLVLSARKLGGAIAAGCSIVLKAAEETPASVAAMVDCLNQELPPGVVQLLYGVPAEVSQALIASPVVRKVTFTGSVPVGRHLAELSARHLKRITLELGGHAPVIVCGDADIARTVNLMVQHKFRNAGQACLAPTRFFVDRRIYGDFVDAFGATQALRVGAGMAAETQMGPVASARRQAAVQDLIARSVAAGARPVASAVPEAGYFVAPTLLADVPLDAPVMSEEPFGPVACAVPFDSLDQAIAQANHNPYGLAGYLFTDSAKAILAVSERLEVGSLAVNGMGVSVPEAPFGGVKDSGYGSESGTEGMEAFLDTKFMHYVA
notes: TsaD, Comamonas testosteroni, codon-optimized synthetic gene in pMCSG9; Expression followed the TsaC protocol with ampicillin; also called untagged TsaD; source: E. coli, purified (MBPTrap, TEV cleavage, HisTrap HP flow-through, Sephacryl S200-HR gel filtration); not shown: MBP, N-terminal, cleaved; His6, N-terminal, cleaved
**Q.** B1 was tested. Which Km [5] did it give?
**A.** The Km was 16 ± 2.5 µM.

**Q.** What about the Vmax [5] of the same molecule?
**A.** The Vmax was 13 µM/min.

**Q.** What about the kcat [5] of the same molecule?
**A.** Its kcat is 0.112 ± 0.00517 s⁻¹.

**Q.** And the kcat/Km [5]?
**A.** Its kcat/Km is 6900 ± 1100 M⁻¹ s⁻¹.

**Q.** And the Km [6]?
**A.** Its Km is 21 ± 6.9 µM.

**Q.** What about the Vmax [6] of the same molecule?
**A.** The Vmax was 13 µM/min.

**Q.** What about the kcat [6] of the same molecule?
**A.** Its kcat is 0.105 ± 0.00983 s⁻¹.

**Q.** And the kcat/Km [6]?
**A.** Its kcat/Km is 5000 ± 1700 M⁻¹ s⁻¹.

**Q.** What about the “stoichiometry N” value [7] of the same molecule?
**A.** The value was 2.

B2: TsaC (wild type), short-chain dehydrogenase/reductase of the TsaMBCD pathway (enzyme, Comamonas testosteroni, UniProt P94681 1-252, looked up)
chain: MNLNKQVAIVTGGASGFGAAIARRLSQAGAAVLVADLNAEGAQRMATELNAAGGRALGMACDVSKEADYRAVVDAAIAQLGGLHIVVNNAGTTHRNKPALAVTEDEFDRVYRVNLKSVYWSAQCALPHFAQQGHGVMVNVASTTGVRPGPGLTWYSGSKAAMINLTKGLALEFARSGVRINAVNPMIGETPMMADFMGMEDTPANRERFLSRIPLGRFTRPDDVASAVAFLASDDASFLTGVCLDVDGGRNI
notes: TsaC, Comamonas testosteroni, codon-optimized synthetic gene in pET-28a(+)-TEV; native residues 1 (initial methionine) to 252 (the four C-terminal residues are 249 to 252); the His6 tag and TEV protease cleavage site are numbered -20 to -1; The tag and TEV site (residues -20 to -1) are present in the crystallised protein but disordered; no cleavage of the tag is described; also called wild-type …
**Q.** Which Km [8] does the source give for B2 here?
**A.** The Km was 20 ± 3.5 µM.

**Q.** What about the Vmax [8] of the same molecule?
**A.** Its Vmax is 15 µM/min.

**Q.** And the kcat [8]?
**A.** Its kcat is 0.125 ± 0.00583 s⁻¹.

**Q.** And the kcat/Km [8]?
**A.** The kcat/Km was 6200 ± 1100 M⁻¹ s⁻¹.

**Q.** What about the Km [9] of the same molecule?
**A.** Its Km is 18 ± 2.8 µM.

**Q.** What about the Vmax [9] of the same molecule?
**A.** The Vmax was 12 µM/min.

**Q.** What about the kcat [9] of the same molecule?
**A.** The kcat was 0.0983 ± 0.00367 s⁻¹.

**Q.** And the kcat/Km [9]?
**A.** Its kcat/Km is 5400 ± 870 M⁻¹ s⁻¹.

**Q.** And the Km [10]?
**A.** The Km was 13 ± 2.0 µM.

**Q.** What about the Vmax [10] of the same molecule?
**A.** The Vmax was 12 µM/min.

**Q.** What about the kcat [10] of the same molecule?
**A.** The kcat was 0.1 ± 0.004 s⁻¹.

**Q.** What about the kcat/Km [10] of the same molecule?
**A.** Its kcat/Km is 7900 ± 1300 M⁻¹ s⁻¹.

**Q.** And the Km [11]?
**A.** Its Km is 23 ± 4.7 µM.

**Q.** And the Vmax [11]?
**A.** The Vmax was 13 µM/min.

**Q.** What about the kcat [11] of the same molecule?
**A.** Its kcat is 0.112 ± 0.00667 s⁻¹.

**Q.** And the kcat/Km [11]?
**A.** Its kcat/Km is 4800 ± 1000 M⁻¹ s⁻¹.

**Q.** And the “stoichiometry N” value [12]?
**A.** The value was 4.

B3: Y155F TsaC variant (enzyme, Comamonas testosteroni, UniProt P94681 1-252, looked up)
chain: MNLNKQVAIVTGGASGFGAAIARRLSQAGAAVLVADLNAEGAQRMATELNAAGGRALGMACDVSKEADYRAVVDAAIAQLGGLHIVVNNAGTTHRNKPALAVTEDEFDRVYRVNLKSVYWSAQCALPHFAQQGHGVMVNVASTTGVRPGPGLTWFSGSKAAMINLTKGLALEFARSGVRINAVNPMIGETPMMADFMGMEDTPANRERFLSRIPLGRFTRPDDVASAVAFLASDDASFLTGVCLDVDGGRNI
notes: TsaC, Comamonas testosteroni, made by site-directed mutagenesis of pET-28a(+)-TEV-tsaC; same limits as the wild type (native residues 1 to 252); Expressed and purified as the wild type; source: E. coli C41(DE3), purified (HisTrap HP, Sephacryl S200-HR gel filtration)
**Q.** B3 was tested. Which “stoichiometry N” value [13] did it give?
**A.** Its value is 4.

B4: TsaM (wild type), Rieske oxygenase of the TsaMBCD pathway (enzyme, Comamonas testosteroni, UniProt P94679 1-347, looked up)
chain: MFIRNCWYVAAWDTEIPAEGLFHRTLLNEPVLLYRDTQGRVVALENRCCHRSAPLHIGRQEGDCVRCLYHGLKFNPSGACVEIPGQEQIPPKTCIKSYPVVERNRLVWIWMGDPARANPDDIVDYFWHDSPEWRMKPGYIHYQANYKLIVDNLLDFTHLAWVHPTTLGTDSAASLKPVIERDTTGTGKLTITRWYLNDDMSNLHKGVAKFEGKADRWQIYQWSPPALLRMDTGSAPTGTGAPEGRRVPEAVQFRHTSIQTPETETTSHYWFCQARNFDLDDEALTEKIYQGVVVAFEEDRTMIEAHEKILSQVPDRPMVPIAADAGLNQGRWLLDRLLKAENGGTAP
notes: TsaM, Comamonas testosteroni, in pET-28a(+)-TEV-tsaM; also called wild-type TsaM; source: E. coli C41(DE3), purified as described for TsaC (gel filtration)
**Q.** Which “stoichiometry N” value [14] does the source give for B4 here?
**A.** Its value is 3.
